Test results: US20240101715A1 (KINDRED BIOSCIENCES, published 2024)
Where a chain is given by its changes, count along the chain named. Blank lines part the entries; values can stand above or below the binder they belong to.

Tests used:
canine TNFα [1] = molecular target: T1, canine TNFα (canine, UniProt P51742 77-233, biotinylated (EZ-Link NHS-LC-biotin) in Example 2); test: BLI (biosensor Octet), format not stated
T1 construct: Bought recombinant protein; also called cTNFα; canine TNF-alpha

canine TNFα [2] = molecular target: T1, canine TNFα; test: BLI (ForteBio), biotinylated TNFα on streptavidin tips, antibody in solution, 1:1 model
Description: (§1) The binding analysis was performed as follows. Briefly, canine and human TNFα were biotinylated. The free unreacted biotin was removed from biotinylated TNFα by extensive dialysis. Biotinylated TNFα was captured on streptavidin sensor tips. The association of five different concentrations (150, 50, 17, 5.6, and 1.9 nM) of TNFα antibody and TNFα (human and canine, in different tests) was monitored for ninety seconds. Dissociation was monitored for 600 seconds. A buffer only blank curve was subtracted to correct for any drift. The data were fit to a 1:1 binding model using ForteBio™ data analysis software to determine the kon (association rate constant), koff (dissociation rate constant) and the KD (dissociation constant). […] The buffer for dilutions and all binding steps was: 200 mM phosphate, 150 mM NaCl, 0.02% Tween-20, 0.05% sodium azide, and 0.1 mg BSA, pH7.4.

human TNFα = molecular target: T2, human TNFα (human, UniProt P01375 77-233, biotinylated (EZ-Link NHS-LC-biotin) in Example 2); test: as above
T2 construct: Bought recombinant protein
T2 sequence (P01375 77-233 limits assumed): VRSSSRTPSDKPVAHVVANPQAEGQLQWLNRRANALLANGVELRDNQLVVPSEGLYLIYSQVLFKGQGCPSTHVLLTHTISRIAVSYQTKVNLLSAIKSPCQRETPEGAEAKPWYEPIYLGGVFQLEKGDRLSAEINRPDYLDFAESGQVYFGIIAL
Description: as §1

T1 sequence (P51742 77-233 limits assumed): as the sequence (P01375 77-233 limits assumed) above, with R2K, Q21E, N30S, R44T, V49I, E53D, I83F, A109T, R138L, D140N counted along it

- Kd (canine TNFα [1]): 0.838 nM
B1: bispecific molecule comprising SEQ ID NO: 77 and SEQ ID NO: 81 (anti-NGF + Fc IgGB (FcRn long-acting Q to Y, C1q-, CD16-) + anti-TNF ScFv) (bispecific antibody)
light: EIVMTQSPGSLAGSAGESVSINCRASEDIYNALAWYQQKPGERPKLLIYNTDTLHTGVPARFSSSGSGTDFTLTINNLQAEDVGDYFCQHYFGYPRTFGAGTKVELKRNDAQPAVYLFQPSPDQLHTGSASVVCLLNSFYPKDINVKWKVDGVIQDTGIQESVTEQDKDSTYSLSSTLTMSSTEYLSHELYSCEITHKSLPSTLIKSFQRSECQRVD
heavy: not shown
notes: Expressed in mammalian cells, purified on Protein A; also called bispecific anti-canine TNF and anti-canine NGF molecule

- Kd (canine TNFα [2]): 0.0988 nM
- koff (canine TNFα [2]): 8.28e-05 s⁻¹
- kon (canine TNFα [2]): 839000 M⁻¹ s⁻¹
- Kd (human TNFα): 0.0207 nM
- koff (human TNFα): 1.53e-05 s⁻¹
- kon (human TNFα): 741000 M⁻¹ s⁻¹
B2: KBA v1 (caninized TNFα D2E7 antibody: KBA VL v1 and canine kappa light constant region; caninized variable heavy chain of D2E7 and canine IgG-B constant region) (antibody, V domains shown)
VH: EVQLVESGGDLVKPGGSLRLSCVASGFTFDDYAMHWVRQAPGKGLQWVSAITWNSGHIDYADAVKGRFTISRDNAKNTLYLQMNSLRAEDTAVYYCAKVSYLSTASSLDYWGQGTLVTVSS
VL: DIVMTQTPLSLSASPGEPVSISCRASQGIRNYLAWYLQKPGQSPRLLIYAASTLQSGVPDRFSGSGSGTDFTLRIGRLEAEDAAIYYCQRYNRAPYTFGQGTKVEIKR
notes: Full light and heavy chains without leader; expressed in CHO cells, purified on Protein A; also called KIND-509

- Kd (canine TNFα [2]): 0.303 nM
- koff (canine TNFα [2]): 0.000216 s⁻¹
- kon (canine TNFα [2]): 713000 M⁻¹ s⁻¹
- Kd (human TNFα): 0.269 nM
- koff (human TNFα): 0.00015 s⁻¹
- kon (human TNFα): 575000 M⁻¹ s⁻¹
B3: KBA v2 (caninized TNFα D2E7 antibody: KBA VL v2 and canine kappa light constant region; caninized variable heavy chain of D2E7 and canine IgG-B constant region) (antibody, V domains shown)
VH: B2 VH
VL: B2 VL with L9P, Y36F, L37R, R45Q, P59S, G76S, E81D, I85V
notes: Full light and heavy chains without leader; expressed in CHO cells, purified on Protein A
